Test results from patent US20240294914A1, “COMPOSITIONS AND METHODS FOR TREATING HEPATITIS B VIRUS INFECTION” (priority 2021, published 2024).
Strand notation (5' to 3'): a small letter for the sugar, then the base; units joined by * are phosphorothioate-linked, units joined directly phosphodiester-linked; [ ] holds rarer units or linkages, { } end groups; capitals alone tell only the bases. m = 2'-O-methyl; r = 2'-OH (RNA)

Assays:
[1] = tested on: Hepatitis B virus; test: HBV minicircle (HBVcircle) mouse model: serum HBsAg, HBeAg, HBV DNA after LNP injection; format: in vivo
Text: Having established the efficacy of these base editing reagents in vitro, experiments were then undertaken to evaluate these same base editing reagents for antiviral efficacy in vivo using the HBV minicircle mouse model. […] After establishing HBV viral replication, hepatic delivery of the base editing reagents was achieved via systemic administration of lipid nanoparticles (LNPs) formulated with the following base editing reagents: CBE mRNA and HBV-targeting gRNAs (e.g., gRNA37 and gRNA40 (see Table 1)). The mice were administered a combination of base editors, where the combination was either gRNA37 and gRNA40 or gRNA37-HM and gRNA40-HM. The guides gRNA37-HM and gRNA40-HM each included heavily modified(HM) scafolds (see Table 1).
Table 23 below provides a summary of the experimental design used to evaluate the base editing reagents in vivo. The mice contained an HBVcircle polynucleotide that enabled HBV replication in vivo. See, for example Yan et al., J. Hepatol 2017 66:1149-1157 for a description of an exemplary mouse model. The mice were administered lipid nanoparticles (BL4 LNP) containing mRNA encoding BE4 (a cytidine base editor) and either the guide RNAs gRNA37 and gRNA40 or the guide RNAs gRNA37-HM and gRNA-40-HM containing a scaffold with heavy modifications (HM). […] HBsAg, HbeAg, and HBV DNA levels in serum were measured weekly (FIGS. 24A-24C and 25A-25C). […]

[2] = tested on: HBV-infected cells; test: Base editors with reduced off-target activity (BE4, ppApo, rrA3F): editing and HBsAg in HBV-infected cells; format: cell-based, Hepatitis B virus; settings: base editor in combination with gRNA37 and gRNA40
Text: FIG. 22 provides a bar graph showing base editing at the sites targeted by gRNA37 and gRNA40. Cells were contacted with BE4, ppApo, or rrA3F in combination with gRNA37 and gRNA40.
Thus, all three base editor systems had antiviral activity. The negative control (HBV) was untreated cells and the control (contr) was gRNA targeting the PCSK9 gene.
It may be advantageous to use base editors that have reduced off-target activity and lower non-specific effects (e.g., as compared to BE4) without compromising editing efficiencies. Thus, experiments were undertaken to evaluate the antiviral efficacy of base editor systems containing ppApo or rrA3F, which are described in Yu, et al. “Cytoxine base editors with minimized unguided DNA and RNA off-target events and high on-target activity,” Nature Communications, 11:2052 (2020), DOI: 10.1038/s41467-020-15887-5, the disclosure of which is incorporated herein by reference in its entirety for all purposes.

[3] = tested on: Hepatitis B virus; test: Antiviral efficacy in HBV-infected primary human hepatocytes (HBV-PHH): HBsAg, HBeAg, HBV DNA, 3.5 kb RNA, rebound; format: cell-based; settings: HBV-PHH system, guide RNA + mRNA encoding base editor
Text: (§1) Base editor systems comparing guide RNAs evaluated in Example 1 were subsequently tested for anti-viral and editing efficacy using the Hepatitis B virus-primary human hepatocyte (HBV-PHH) system. Cells were transfected with the guide RNAs and mRNAs encoding the base editor as described in Example 1. […] Guide RNAs ABE-133, MSPbeam94, and ABE-85 were associated with a 70-80% reduction of HBV DNA as compared to controls. The guide RNAs PolyA-NGC1 and PolyA-NGC2 were associated with high editing followed by 90% efficacy in reduction of HbeAg.
The HBV-PHH system for studying the Hepatitis B virus is described, for example, by Winer, et al., “Long-term hepatitis B infection in a scalable hepatic co-culture system,” Nat. Commun. 8:125 (2017) and by Zhou, et al. “Long-term maintenance of human fetal hepatocytes and prolonged susceptibility to HBV infection by co-culture with non-parenchymal cells,” J. Virol Methods, 195:185-93 (2014); and is provided commercially by ImQuest BioSciences (imquestbio.com/programs/virology/hbv/)).
(§2) The design of the experiments is described schematically in FIG. 14. Primary human hepatocyte (PHH) cells were infected with HBV at day 0. At days 4 and 11, the cells were transfected with mRNA encoding BE4 and with gRNA37 and gRNA40. Measurements of HBV DNA were taken over time, and measurements of HBsAg, HBeAG, HBV total DNA, 3.5 kb RNA, and cccDNA editing were taken at day 25. The experiments were carried out using a PHH co-culture system available from PhoenixBio. The PHH co-culture system maintained hepatocyte differentiation and metabolic activity for over 30 days. The HBV infection in the cells was persistent and a cccDNA level was maintained.
(§3) The design of the experiments is described schematically in FIG. 18. Primary human hepatocyte (PHH) cells were infected with HBV at day 0, at day 4 an 8-day. Treatment with lamivudine commenced (which included a 3-day pretreatment period within the 8-day total), and cells were transfected with mRNA encoding BE4 and the gRNAs gRNA37 and gRNA40 at days 7 and 14. HBV DNA levels were measured over time, and additional HBV markers were measured at day 21.
(§4) Primary hepatocytes (PHH) co-cultures infected with HBV were used to test antiviral efficacy of base editing systems. Primary hepatocyte co-culture (PHH) infected with HBV virus is a clinically relevant system for assessing anti-viral activity of base editing systems. The base editing reagents (mRNA encoding a base editor(s) and synthetic gRNA) were transfected via lipofection twice over the course of two weeks. The first transfection was performed about 3, 4, or 7 days after infection (days post infection (dpi)). Not being bound by theory, this 3-to-7-day period ensured that the cccDNA was completely formed at the time of the transfection. The second transfection was at about 7, 10, 11, or 14 days after infection. Extracellular parameters (e.g., HBsAg, HBeAg, and HBV DNA) were monitored over the course of the experiment (including the end of the experiment) and intracellular parameters (HBV DNA, viral RNA, and editing) were measured at the end of the experiment. Cells were lysed at the termination of the experiment (e.g., at 15, 17, 21, or 25 days).
(§5) Transfection details: RNA format, 800 ng total RNA per well in a 24 well plate (600 ng base editor-encoding mRNA+200 ng gRNA) transfected via lipofection (lipofectamin messengerMax, thermofisher Scientific) according to the vendor protocol.

[4] = tested on: HBV cccDNA; test: Base editing of HBV cccDNA in primary human hepatocytes (HBV-PHH); format: cell-based, Hepatitis B virus; settings: HBV-PHH system
Text: as §1
Having identified gRNA37 and gRNA40 as effective gRNAs, the antiviral efficacy of a base editor system containing BE4, gRNA37 and gRNA40 (i.e., multiplexing gRNAs) was evaluated, FIGS. 8-10. It was determined that the base editor system multiplexed with the two gRNAs was associated with a reduction of HBV viral parameters in HepG2-NTCP cells, see FIG. 9. […] For the evaluation of editing of cccDNA, the cccDNA was enriched via Hirt extraction and ExoI/ExoIII nuclease treatment to remove rcDNA (relaxed circular DNA). Throughout the Examples provided herein, editing of cccDNA was evaluated using next generation sequencing completed using cccDNA enriched in this way.
as §2, §3, §4, §5

[5] = tested on: HBV genome in HEK293T cells transduced with a lentiviral vector; test: Base editing efficiency in Hek293-lentiHBV system (PCR amplicons sequenced on MiSeq); format: cell-based, Hepatitis B virus; set-up: Editing Efficiency 2 (%): concentration or dose not given beside the values; settings: for Average Editing Efficiency (%): average of 3, base editor Cas12b-ABE; for Average Editing Efficiency (%) / Editing Efficiency 1 (%) / Editing Efficiency 2 (%) / Editing Efficiency 3 (%): plasmid transfection, four days; for Editing Efficiency 1 (%): replicate 1, base editor Cas12b-ABE; for Editing Efficiency 2 (%): replicate 2, base editor Cas12b-ABE; for Editing Efficiency 3 (%): replicate 3, base editor Cas12b-ABE

C=C1[C@H](CO)[C@@H](O)C[C@@H]1n1cnc2c(=O)[nH]c(N)nc21 [Entecavir]
HBV rebound (serum HBV DNA) ([1]; Entecavir 0.03 mg/kg orally for two weeks then discontinued, LNP 2 mg/kg): rebounds
reduction in serum levels of HBV DNA at day 21 ([1]; Entecavir orally daily days 1-14, base editing reagents day 1 or days 1 and 14): approximately 2 log

BE4: cytidine base editor polypeptide, SEQ ID NO: 10832, delivered as mRNA
HBsAg levels [2]: reductions
editing efficiencies at the sites targeted by gRNA37 and gRNA40 [2]: comparable editing efficiencies

B1: PolyA-NGC2: guide RNA SEQ ID NO: 5500 (nucleic acid)
guide: TTTATAAGGGTCGATGTCCAGTTTTAGAGCTAGAAATAGCAAGTTAAAATAAGGCTAGTCCGTTATCAACTTGAAAAAGTGGCACCGAGTCGGTGCTTTT
modifications: chemistry not fully specified
HBV markers relative to the no treatment control (cccDNA editing and/or viral replication) [3]: robust reduction in all HBV markers
efficacy in reduction of HbeAg [3]: 90%
cccDNA Editing in PHH A > G % [4]: 62.9%
editing [4]: high editing

B2: cas12b-5: guide RNA SEQ ID NO: 380 (nucleic acid)
guide: mG*mU*mU*rCrUrGrUrCrUrUrUrUrGrGrUrCrArGrGrArCrArArCrCrGrUrCrUrArGrCrUrArUrArArGrUrGrCrUrGrCrArGrGrGrUrGrUrGrArGrArArArCrUrCrCrUrArUrUrGrCrUrGrGrArCrGrArUrGrUrCrUrCrUrUrArCrGrArGrGrCrArUrUrArGrCrArCrUrCrGrCrUrGrGrArUrGrUrGrUrCrUrGrCrGrGrC
Average Editing Efficiency (%) [5]: 0.54%
Editing Efficiency 1 (%) [5]: 0.12%
Editing Efficiency 2 (%) [5]: 0.36%
Editing Efficiency 3 (%) [5]: 1.14%

B3: ABE-133: guide RNA SEQ ID NO: 5516 (nucleic acid)
guide: GAAGATGAGGCATAGCAGCAGTTTTAGAGCTAGAAATAGCAAGTTAAAATAAGGCTAGTCCGTTATCAACTTGAAAAAGTGGCACCGAGTCGGTGCTTTT
modifications: chemistry not fully specified
% Editing average ([5]; base editor VRQR-ABE): 65%
HBV markers relative to the no treatment control (cccDNA editing and/or viral replication) [3]: robust reduction in all HBV markers
cccDNA Editing in PHH A > G % [4]: 76.0%

B4: cas12b-11: guide RNA SEQ ID NO: 381 (nucleic acid)
guide: mG*mU*mU*rCrUrGrUrCrUrUrUrUrGrGrUrCrArGrGrArCrArArCrCrGrUrCrUrArGrCrUrArUrArArGrUrGrCrUrGrCrArGrGrGrUrGrUrGrArGrArArArCrUrCrCrUrArUrUrGrCrUrGrGrArCrGrArUrGrUrCrUrCrUrUrArCrGrArGrGrCrArUrUrArGrCrArCrCrArCrCrUrGrUrArUrUrCrCrCrArUrCrCrCrArU
Average Editing Efficiency (%) [5]: 58.03%
Editing Efficiency 1 (%) [5]: 44.34%
Editing Efficiency 2 (%) [5]: 60.28%
Editing Efficiency 3 (%) [5]: 69.47%
HBV markers relative to the no treatment control (cccDNA editing and/or viral replication) [3]: robust reduction in all HBV markers

B5: PolyA-NGC1: guide RNA SEQ ID NO: 5499 (nucleic acid)
guide: GACCCTTATAAAGAATTTGGGTTTTAGAGCTAGAAATAGCAAGTTAAAATAAGGCTAGTCCGTTATCAACTTGAAAAAGTGGCACCGAGTCGGTGCTTTT
modifications: chemistry not fully specified
HBV markers relative to the no treatment control (cccDNA editing and/or viral replication) [3]: robust reduction in all HBV markers
efficacy in reduction of HbeAg [3]: 90%
cccDNA Editing in PHH A > G % [4]: 60.4%
editing [4]: high editing

B6: cas12b-152: guide RNA SEQ ID NO: 5523 (nucleic acid)
guide: GUUCUGUCUUUUGGUCAGGACAACCGUCUAGCUAUAAGUGCUGCAGGGUGUGAGAAACUCCUAUUGCUGGACGAUGUCUCUUACGAGGCAUUAGCACAGAGAAGUCCACCACGAGUC
modifications: listed as RNA, chemistry not fully specified
% Editing average ([5]; base editor Cas12b-ABE): 54%
HBV markers relative to the no treatment control (cccDNA editing and/or viral replication) [3]: robust reduction in all HBV markers

B7: ABE-41: guide RNA SEQ ID NO: 5513 (nucleic acid)
guide: AGAAGATGAGGCATAGCAGCGTTTTAGAGCTAGAAATAGCAAGTTAAAATAAGGCTAGTCCGTTATCAACTTGAAAAAGTGGCACCGAGTCGGTGCTTTT
modifications: chemistry not fully specified
% Editing average ([5]; base editor Abe7.10): 58%
HBV markers relative to the no treatment control (cccDNA editing and/or viral replication) [3]: robust reduction in all HBV markers
cccDNA Editing in PHH A > G % [4]: 56.0%
